The series is described as follows: soluble on expression in E. coli; label from the status in PepcDB or PDB records.
Consider “MGSDKIHHHHHHMEAVKTGIEGFDDIFGGFYRGQIILIAGNPGSGKTTFCAKFLYEGARRFGENGLYISIGESKEEFYEYMKKLGMDFEKLEKTGSFKYVEMLAPTSEDALMQLSRELTKNALELKATRIVIDSISPILSMNPETARAILHNALKTISRELKSVVLMTEEMPIGETRIGQGIEEFVVDGVIVLRLEVPEAGAPVRTMSVLKLRGKPLDRAVYNFEIGPPSGVRVLMHGIEELESNIDFNNKIATGIDGFDELLGGGIIRGTATAFVGPSGGGKTVLMLSAAANVAINGENVTYISFEEPRQQIEETLKFLGYGEVEGLEILSLNPRMISLRALYDILSKTVLDHRTMLFIDGLNAIRREFGEAFHRVVRDVVFQMKKNGITVVISLIGGTIKETLLSTIVDNVVELRVVEKDGELRREIAVRKARMSRASNEVKRLVFDGKPAVR”, for which the “soluble on expression in E. coli” value was “not soluble”.

“MGSDKIHHHHHHMEDILKYLQVHVPFRMLEGGFLDTVIAKGISPEIGFDCAILDATGKDRFREVADRFSDAGLRVTFHAPFMDLRPGAIDPRIREVSRERIQQVFDLVPLFRPRTIVCHPSFDSRYYVSSERKWLENSTLTWSTFVEQAAEFDTLLLLENVYEKEPRQFVHLLTALDSLRVRFCLDTGHCNAFSDAPLSSWLEELGTFLGEVHLHDNDGSRDAHLPIGEGNFPFMELFGFLKTKVNRPILTLEAHSADHLSRTLETLRKNRLFGLI”: the “soluble on expression in E. coli” value is reported as “not soluble”.

“MGSDKIHHHHHHMEERVVVEGLTGGYRPNKPVLHDLHLKIRANELVGLIGLNGAGKSTTIKHILGLMEPHKGSVMINGNTITTDRETYRRSLAYIPETPILYEELTLWEHMELTALAYGIERKAFEERSKLLLDEFRMTKMKHWYPSHFSKGMRQKVMIICAFLIDPPVYIVDEPIVGLDPIGIQSFLQLLATKKKNGAAVLMSTHILATAERYCDRFIILNRGRIVLEGTLESMRAELNMPDATLDDIYIEMTKEESQ”: the “soluble on expression in E. coli” value is “not soluble”.

Take “MGSDKIHHHHHHMEFEVKKTFGKARLGVMKLHHGAVETPVFMPVGTNASVKLLTPRDLEEAGAEIILSNTFHLMLKPGVEIIKLHRGLHNFMGWKRPILTDSGGFQVFSLPKIRIDDEGVVFRSPIDGSKVFLNPEISMEVQIALGSDICMVFDHCPVPDADYEEVKEATERTYRWALRSKKAFKTENQALFGIVQGGIYPDLRRESALQLTSIGFDGYAIGGLSIGEERSLTLEMTEVTVEFLPEDKPRYFMGGGSPELILELVDRGVDMFDSVFPTRIARHGTALTWNGKLNLKASYNKRSLEPVDERCGCYTCKNFTRSYIHHLFDRGEVLGQILLTIHNINFMISLMKEVRRSIESGTFKELKSKVVEVYSSGGVNV”: the “soluble on expression in E. coli” value was “soluble”.

Consider “MGSDKIHHHHHHMEFTDLQIFIHLSDTKNFTKTATQNHMSPSTLSRQIQRLEDELGKTLFIRDNRQVKLTEYGEKFLQFAKTEWQNWQQFKQQLKDESDELCGEIKLFCSVTASYSHLPHVLKEFRQRYPKVEIQLTTGDPALALELIQAQQVDLALAGKPNNLPSSVVFHKIDDISLSLIAPRVACLATQLLQEKPIDWQQMPFIFPVEGHARQRIEQWLREKQIKHPKIYATVAGHEGIVPMVGLGFGLAMLPDAVIDSSPMNNQISRLNLDKPIEPFELGICTQKRNLEQPLVRAFWAMLE”, for which the “soluble on expression in E. coli” value is recorded as “not soluble”.

With “MGSDKIHHHHHHMEFYDIVIVGGGPAGLAAAASAKKNKIDKILILERDCELGGILNQCIHNGFGLHTFKEELTGPEYAGRFIKEVKELGIEYRLNTMVMDISTGDESENGSNDKIVTAMNRTDGLFHIAAKTVILAMGCRERARGALNIPGYRPAGIFSAGTAQRLVNIEGYMPGRKVVILGSGDIGLIMARRMTLEGAKVQVVAELMPYSGGLKRNIVQCLDDFNIPLKLSHTVVDIKGRERVEGITLAQVDEHNKPIEGTEEFYECDTLLLSCGLIPENEISKTAGVELNPVTSGPVVNESLETNVPGVFACGNVLHVHDLVDYVSEEATAAGRHAAEYVKNGGDKSCDGKEISITATGGVRYTVPSTINTAQMDDTVTVRFRVGAVYKNCYIAVYLDDKQLQHRKRPVMAPGEMEQVVLQKKQLIETDNPCTITIKIEEA”, the “soluble on expression in E. coli” value is “not soluble”.

Consider “MGSDKIHHHHHHMEIIAHRGFRGRYPEMTAQAYEKACELPIHGVECDVRLTADGHLACVHDRTLLRIASCGLVVSTATMDQLREHGIITLDELIDILPEDKHLYIETKHPMRYGVMAEEQVALRLRYRGLLHDPRFHLISFSHAAIRRMGRIAPGFDTIYLRREWELRYNPKDFAISRPSAWGLSLAHAKIRPQLIGRDGKKTYMWTVNDADDVRWARDNGVQLLATDYPDVALEALAQ”, for which the “soluble on expression in E. coli” value is reported as “not soluble”.

For the sequence “MGSDKIHHHHHHMEISDIIYGQHHIDGVLEELIKSAPVQRLKGIYQGGASFLVNRKWNVTRYEHSIGVMLLIKKLGGTIEEQIAGLLHDVSHTAFSHVVDVVFENQAEDYHENIFQQVIVHSEIPDILQKHGYHTEELLSDDSRWTLLEQPAPELCADRTDYTLRDMYRYGHINLHEAQTFLDHLIVRNGRMFPDSIEAAEWFVSVYYKEVIDFFLNPVNVYGYEYLARALKAALRHDVISAEDLLKTDQEVLNILRASKNEEVLSLLTSIHPGIQVIEDDIQYDFHQKKKMRLIDPSIFLDDKWIKSSGVSEKVRKMGEAAYQKAKKGVYIKILKQ”, the “soluble on expression in E. coli” value is given as “not soluble”.

As to “MGSDKIHHHHHHMEIVFVYDAVYPWTKGGVERRLHEVGRRLSNEHNVKWLCVGWWGKEKRIQEGVELIPVCKAQQLYSRGRRTIREAMIFAASLLKKSRIKADVIDCQVFPYLSVFPFATRKELVLTWHEFWGDYWYEYLGKAGFFGKAVERIVAKLKARTIAVSETTRKALESLGIRATVIPNGVDFPRISEIPASSEEWDVIFVGRLIREKNLELLFDAMKLLPELNCLVVGDGPERERLSKIAPANVDFGGSLGYEEVISMMKSSKVFAIPSRREGFGISALEANACGLPVVTIRHQMNAVVEIAEKTGFVAEPHARDFAEKIRLALEMRREMREKCINFAKNFDWEVIARRLEEFYEGVHSPPNEGRAE”, the “soluble on expression in E. coli” value is given as “not soluble”.

As to “MGSDKIHHHHHHMEKAERLTGTPDYAVLPGRILDKTLAGRGLQKAEFAERCGHSAKMISEIIAGKAPIMPETALEFERVLGMPASYWLTLESLYRLRLAEQRDRQRLSDQRDWAKRFPIAAMVRLGWIDKPSDRVDEVAKLLAFFGVASVEAWQAMTASAAEQIAYRRSPSFQSAPESVSAWLRRGEMVAGARPCGPFDEAGFRRVLKSVRELTREAPEVFQPSLIERCACVGVAVVFTPELPKTCLSGATRWLSKDKALIQLSLRHKTDDHLWFTFFHEAGHVLLHPKKLILEEKLKKGEAPTPESAQREREANVFAATTLIPRSAWMAFTAAGDFSAPRIRAFAKEHSLSPGIIVGQLQHDSHLSYATTLNSLKTTFRWPAESAVSHPSV”, the “soluble on expression in E. coli” value is “not soluble”.

Regarding “MGSDKIHHHHHHMEKAVENFEDLSKEYINGYIERARKAQREFECYTQEQVDKIVKIVGKVVYYNAEYLAKLAVEETGMGVYEDKVAKNKSKAKVIYNNLKDKKSVGIIDIDRETGITKVAKPVGVVAAITPCTNPIVTPMSNAMFALKGRNAIIITPHHKAIGCSTKTVEMINEELEKIGAPENLIQILDQQSRENTRNLISSADVVIATGGMGMVKAAYSSGKPALGVGAGNVQCIIDRDVDIKEAVPKIIAGRIFDNGIICSGEQSVIVAEEMFDKIMDEFKNNKGFIVRDKVQKEAFRNAMFVNKSMNKDAVGQSVHTIAKIAGVEIPEDTKIIVIEADGPGEEDIIAKEKMCPVISAYKYKSFEEGVAIAKANLNVEGKGHSVSIHSNTVKNIEYAGENIEVSRFVINQCCATSAGGSFFNGLAPTNTLGCGSWGNNSISENLDYKHLINISRIAYYMPENEVPTDEELWG”, the “soluble on expression in E. coli” value is listed as “not soluble”.

Consider “MGSDKIHHHHHHMEKLRVIEMIKNNPNIIATIDNPTDEMKLLAIKENGLVLEYINNPTREMQELAIDNNIRAIKFIDNPTEDMMIKAVNEGWSILDYIKNPTDKVIEMAINQAGWAIKYAKNPSEELQLLAVRKNYDSIKFIKQPYESVQEEAVRISYDALRYIDSPSYNAELVAIKNNEAAISFITDLDKNKMLEFLKVNILVIKYILKKVSKDELESVLKEVLSKEDVEEKYIRDFLNCSVIDRNSESIPIDKIMFIYKYGSKTAKKIAVDEKLKIM”, for which the “soluble on expression in E. coli” value is “not soluble”.

As to “MGSDKIHHHHHHMELVVDAHELKEWVYLLDKLVGTTEPTARFLSFFYRDGLWVSASDNCAKVEIFLGEIPRFEGSRIVSLDLVKYFLSDVKVSDVRITVLQERLVLKAGNEVLDVRCKTGEIPPGDGEEEFLCTLTKREFEGALNFASSNLDEGEFLILLFEEKDVLMFGASAGIMTLAQISTIPKKPFSTKIPYVTVRHIFKAFQRLDVQTLDFYEKSGKLVVKYPHFVMEVCGDEVSEEEIKKLKSLLEEKTAERIEARRQVLAKLVRKAAVLSRGDYATISRRGENLKVQVKRKNLSYTAELFVESGRDFVVVFPSKKLRSALARMDTERIFLEITERFLKISNFSGTRVIYLELEEFF”, the “soluble on expression in E. coli” value is recorded as “not soluble”.

As for “MGSDKIHHHHHHMEMEFNENNIDLETIIRDEVNKYLSRDIGDLPATQQAPLELREKYEKMEVPNKGRDIYEVLKDLNNEVLNYLYRPNHPRSFSFIPGPASRLSWLGDILTTANNIHASNFANATLPINIERNLINYLVGKIGYEIKPAGGVFVSGGSMANLTAIVAARDAQVEMEDIKKATVYLTSQTHHSVGKALHVAGFLKNNIRRIEYNDDFTMNTDSLKAAIDKDIEEGYKPAMVIATAGTTNTGSVDDFTTLGDICDHYNLWLHVDGAYGLSHILSDKAQHLFKGIERSDSASWDAHKLLFQTYSCAMVIVKEKNHLLQSFGEDAEYLDDIASDDDVIDPEMLGIELTRPARALKLWITLQVIGEDEIIERIKYGEGLAEYAEEYVSSLDNWRIISHANLSIVNFRYENSDLTEAQNNQLNSMAAQKIADSGYAIAYTTVLNNQRVIRLCTTNPLTTHDDIRETINRLDQYIGDYDMKDA”, the “soluble on expression in E. coli” value is reported as “not soluble”.

For the sequence “MGSDKIHHHHHHMENDILKYQKAYNTIVKLLKSNEKVLATMVFGSIVSGDLWEESDIDLFVIIDEEMANIKNIYMEQNDVPIHIKLMGKNKFVLLNENDIKGGFFHRIFASSKLVFSKDKDITEKYDSGRYYPDIDREKWNMVYISDLLKSLGLCKKYLNNKRIYTAYYFSVKCVEEFSKLYINHSGYMVNKDDVNMLTNINGDFKNYIDNLFFSKDNVEEAIKEVVDKIEEFINKNIKSITAILIDYMRDKDKSLSAEDINTDPVFNDFSINFEEILSKLWEFNIIKKGTRKYSIKDGKALCMENVYYL”, the “soluble on expression in E. coli” value was “not soluble”.

With “MGSDKIHHHHHHMENFVFHNPTKIVFGRGTIPKIGEEIKNAGIRKVLFLYGGGSIKKNGVYDQVVDSLKKHGIEWVEVSGVKPNPVLSKVHEAVEVAKKEKVEAVLGVGGGSVVDSAKAVAAGALYEGDIWDAFIGKYQIEKALPIFDVLTISATGTEMNGNAVITNEKTKEKYGVSSKALYPKVSIIDPSVQFTLPKEQTVYGAVDAISHILEYYFDGSSPEISNEIAEGTIRTIMKMTERLIEKPDDYEARANLAWSATIALNGTMAVGRRGGEWACHRIEHSLSALYDIAHGAGLAIVFPAWMKYVYRKNPAQFERFAKKIFGFEGEGEELILKGIEAFKNWLKKVGAPVSLKDAGIPEEDIDKIVDNVMLLVEKNLKPKGASLGRIMVLEREDVREILKLAAK”, the “soluble on expression in E. coli” value is “soluble”.

Consider “MGSDKIHHHHHHMENIPFLRASTVPVIEYLDELKEIDASHIYTNYGPINQRFEQTIMSGFFQNRGAVTTVANATLGLMAAIQLKKRKKGKYALMPSFTFPATPLAAIWCGLEPYFIDISIDDWYMDKTVLWDKIEELKEEVAIVVPYATFGSWMNLEEYEELEKKGVPVVVDAAPGFGLMNGGMHYGQDFSGMIIYSFHATKPFGIGEGGLIYSKNEEDIQRIKRMGNFGFDTNRECTMMGFNCKMSEYAAAIGIATMKKWDDKLKERTRISEWYKQLLQSNGLMKKGWQLQKTEAVIQQFMPILCPEEVRNKQVIEDLKKQKIEARLYFSPSCHQQVLFRNYKSTDLTRTNKIAKRIVSLPLWEGMTKEIVEQIVICLGQKVVSADE”, for which the “soluble on expression in E. coli” value was “not soluble”.

The values above are taken from the DeepSol protein solubility set.
